Test results reported in the RNAGym collection of RNA variant scans (doi:10.1093/molbev/msab373).

B1: Azoarcus group I ribozyme (parent)
chain: GUGCCUUGCGCCGGGAAACCACGCAAGGGAUGGUGUCAAAUUCGGCGAAACCUAAGCGCCCGCCCGGGCGUAUGGCAACGCCGAGCCAAGCUUCGGCGCCUGCGCCGAUGAAGGUGUAGAGACUAGACGGCACCCACCUAAGGCAAACGCUAUGGUGAAGGCAUAGUCCAGGGAGUGGCGAAAGUCACACAAACCGG

Variants of: B1
Experiment: reverse-splicing fitness (ratio to wild type); higher = more active; in vitro selection; Mg2+ level not given
Method in brief: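 An in vitro group I ribozyme library with randomized positions was T7-transcribed and gel-purified. In triplicate, 10 pmol RNA in EPPS pH 7.5 was reacted with 50 pmoles of a 30-nt RNA substrate for 1 h at 37 °C across several added MgCl2 levels (1–48 mM), then stopped with EDTA. Products were reverse transcribed from a substrate-complementary primer, PCR-amplified and sequenced (HiSeq 4000). Fitness is a variant's read proportion after selection over that before, normalised to wild type.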
GUGCCUUGCGCCGGGAAACCACGCAAGGGAUGGUGUCAAAUUCGGCGAAACCUAAGCGCCCGCCCGGGCGUAUGGCAACGCGGAGCCAAGCUUCGGCGCCUGCGCCGAUGCAGGUGUAGUGACUAGACGGCACCCACCUAAGGCAAACGUUAUGGUGAAGGCAUAGUCCAGGGAGAGGCGAAAGUCACACAAACCGG [C82G A111C A120U C150U U176A] showed a reverse-splicing fitness of 0.00878. In the case of GUGCCUUGCGCCGGGAAACCACGCAAGGGAUGGUGUCAAAUUCGGCGAAACCUAAGCGCCCGCCCGGGCGUAUGGCAACGCGGAGCCAAGCUUCGGCGCCUGCGCCGAUGCAGGUGUAGUGACUAGACGGCACCCACCUAAGGCAAACGUUAUGGUGAAGGCAUAGUCCAGGGAGCGGCGAAAGUCACACAAACCGG [C82G A111C A120U C150U U176C], the reverse-splicing fitness is reported as 0.0132. With GUGCCUUGCGCCGGGAAACCACGCAAGGGAUGGUGUCAAAUUCGGCGAAACCUAAGCGCCCGCCCGGGCGUAUGGCAACGCGGAGCCAAGCUUCGGCGCCUGCGCCGAUGCAGGUGUAGUGACUAGACGGCACCCACCUAAGGCAAACGUUAUGGUGAAGGCAUAGUCCAGGGAGGGGCGAAAGUCACACAAACCGG [C82G A111C A120U C150U U176G] the reverse-splicing fitness was 0.00397. GUGCCUUGCGCCGGGAAACCACGCAAGGGAUGGUGUCAAAUUCGGCGAAACCUAAGCGCCCGCCCGGGCGUAUGGCAACGCGGAGCCAAGCUUCGGCGCCUGCGCCGAUGCAGGUGUAGUGACUAGACGGCACCCACCUAAGGCAAACGUUAUGGUGAAGGCAUAGUCGAGGGAGAGGCGAAAGUCACACAAACCGG [C82G A111C A120U C150U C169G U176A] gave a reverse-splicing fitness of 0.00503. For GUGCCUUGCGCCGGGAAACCACGCAAGGGAUGGUGUCAAAUUCGGCGAAACCUAAGCGCCCGCCCGGGCGUAUGGCAACGCGGAGCCAAGCUUCGGCGCCUGCGCCGAUGCAGGUGUAGUGACUAGACGGCACCCACCUAAGGCAAACGUUAUGGUGAAGGCAUAGUCGAGGGAGGGGCGAAAGUCACACAAACCGG [C82G A111C A120U C150U C169G U176G], the reverse-splicing fitness was 0.00259. Variant GUGCCUUGCGCCGGGAAACCACGCAAGGGAUGGUGUCAAAUUCGGCGAAACCUAAGCGCCCGCCCGGGCGUAUGGCAACGCGGAGCCAAGCUUCGGCGCCUGCGCCGAUGCAGGUGUAGUGACUAGACGGCACCCACCUAAGGCAAACGUUAUGGUGAAGGCAUAGUCGAGGGAGCGGCGAAAGUCACACAAACCGG [C82G A111C A120U C150U C169G U176C] has a reverse-splicing fitness of 0.00301. GUGCCUUGCGCCGGGAAACCACGCAAGGGAUGGUGUCAAAUUCGGCGAAACCUAAGCGCCCGCCCGGGCGUAUGGCAACGCGGAGCCAAGCUUCGGCGCCUGCGCCGAUGCAGGUGUAGUGACUAGACGGCACCCACCUAAGGCAAACGUUAUGGUGAAGGCAUAGUCUAGGGAGUGGCGAAAGUCACACAAACCGG [C82G A111C A120U C150U C169U] gave a reverse-splicing fitness of 0.00568. For GUGCCUUGCGCCGGGAAACCACGCAAGGGAUGGUGUCAAAUUCGGCGAAACCUAAGCGCCCGCCCGGGCGUAUGGCAACGCGGAGCCAAGCUUCGGCGCCUGCGCCGAUGCAGGUGUAGUGACUAGACGGCACCCACCUAAGGCAAACGUUAUGGUGAAGGCAUAGUCGAGGGAGUGGCGAAAGUCACACAAACCGG [C82G A111C A120U C150U C169G], the reverse-splicing fitness was 0.00542. With GUGCCUUGCGCCGGGAAACCACGCAAGGGAUGGUGUCAAAUUCGGCGAAACCUAAGCGCCCGCCCGGGCGUAUGGCAACGCGGAGCCAAGCUUCGGCGCCUGCGCCGAUGCAGGUGUAGUGACUAGACGGCACCCACCUAAGGCAAACGUUAUGGUGAAGGCAUAGUCAAGGGAGCGGCGAAAGUCACACAAACCGG [C82G A111C A120U C150U C169A U176C] the reverse-splicing fitness was 0.00319. GUGCCUUGCGCCGGGAAACCACGCAAGGGAUGGUGUCAAAUUCGGCGAAACCUAAGCGCCCGCCCGGGCGUAUGGCAACGCGGAGCCAAGCUUCGGCGCCUGCGCCGAUGCAGGUGUAGUGACUAGACGGCACCCACCUAAGGCAAACGUUAUGGUGAAGGCAUAGUCAAGGGAGAGGCGAAAGUCACACAAACCGG [C82G A111C A120U C150U C169A U176A] showed a reverse-splicing fitness of 0.00515. For GUGCCUUGCGCCGGGAAACCACGCAAGGGAUGGUGUCAAAUUCGGCGAAACCUAAGCGCCCGCCCGGGCGUAUGGCAACGCGGAGCCAAGCUUCGGCGCCUGCGCCGAUGCAGGUGUAGUGACUAGACGGCACCCACCUAAGGCAAACGUUAUGGUGAAGGCAUAGUCAAGGGAGGGGCGAAAGUCACACAAACCGG [C82G A111C A120U C150U C169A U176G], the reverse-splicing fitness was 0.00243. For GUGCCUUGCGCCGGGAAACCACGCAAGGGAUGGUGUCAAAUUCGGCGAAACCUAAGCGCCCGCCCGGGCGUAUGGCAACGCGGAGCCAAGCUUCGGCGCCUGCGCCGAUGCAGGUGUAGUGACUAGACGGCACCCACCUAAGGCAAACGUUAUGGUGAAGGCAUAGUCUAGGGAGAGGCGAAAGUCACACAAACCGG [C82G A111C A120U C150U C169U U176A], the reverse-splicing fitness was 0.00688. In the case of GUGCCUUGCGCCGGGAAACCACGCAAGGGAUGGUGUCAAAUUCGGCGAAACCUAAGCGCCCGCCCGGGCGUAUGGCAACGCGGAGCCAAGCUUCGGCGCCUGCGCCGAUGCAGGUGUAGUGACUAGACGGCACCCACCUAAGGCAAACGUUAUGGUGAAGGCAUAGUCUAGGGAGCGGCGAAAGUCACACAAACCGG [C82G A111C A120U C150U C169U U176C], the reverse-splicing fitness is reported as 0.00485. Work on GUGCCUUGCGCCGGGAAACCACGCAAGGGAUGGUGUCAAAUUCGGCGAAACCUAAGCGCCCGCCCGGGCGUAUGGCAACGCGGAGCCAAGCUUCGGCGCCUGCGCCGAUGCAGGUGUAGUGACUAGACGGCACCCACCUAAGGCAAACGUUAUGGUGAAGGCAUAGUCUAGGGAGGGGCGAAAGUCACACAAACCGG [C82G A111C A120U C150U C169U U176G] yielded a reverse-splicing fitness of 0.0024. GUGCCUUGCGCCGGGAAACCACGCAAGGGAUGGUGUCAAAUUCGGCGAAACCUAAGCGCCCGCCCGGGCGUAUGGCAACGCGGAGCCAAGCUUCGGCGCCUGCGCCGAUGCAGGUGUAGUGACUAGACGGCACCCACCUAAGGCAAACGCUAUGGUGAAGGCAUAGUCAAGGGAGUGGCGAAAGUCACACAAACCGG [C82G A111C A120U C169A] showed a reverse-splicing fitness of 0.00474.
